According to paper PMC4442525 (2015):

B1: FLAG-tagged KIR3DL1*001 [human] / HLA-B*57:01-LF9 tetramer [human | not stated] (parent complex)
chain 1: HMGGQDKPFLSAWPSAVVPRGGHVTLRCHYRHRFNNFMLYKEDRIHIPIFHGRIFQESFNMSPVTTAHAGNYTCRGSHPHSPTGWSAPSNPVVIMVTGNHRKPSLLAHPGPLVKSGERVILQCWSDIMFEHFFLHKEGISKDPSRLVGQIHDGVSKANFSIGPMMLALAGTYRCYGSVTHTPYQLSAPSDPLDIVVTGPYEKPSLSAQPGPKVQAGESVTLSCSSRSSYDMYHLSREGGAHERRLPAVRKVNRTFQADFPLGPATHGGTYRCFGSFRHSPYEWSDPSDPLLVSVTGNPSSSWPSPTEPSSKSGNPRHLHILIGTSVVIILFILLLFFLLHLWCSNKKNAAVMDQEPAGNRTANSEDSDEQDPEEVTYAQLDHCVFTQRKITRPSQRPKTPPTDTILYTELPNAKPRSKVVSCP
chain 2: not shown
chain 3: not shown
chain 4: LSSPVTKSF

Variants of: B1
Assay: pHLA tetramer staining of transfected HEK293T cells; read off a plot
chain 1 P163S showed a response of roughly 81. Variant chain 1 L166R has a response of roughly 8. In the case of chain 1 G138W, the response is reported as roughly 83. With chain 1 P199L the response was roughly 71.

Variants of: B1
Assay: as above
Remark: another data set of the same source
With chain 4 S8A the response was roughly 57. In the case of chain 4 S8H, the response is reported as roughly 99. chain 4 S8L showed a response of roughly 58. In the case of chain 4 S8F, the response is reported as roughly 110. chain 4 S8R showed a response of roughly 72.

Variants of: B1
Assay: as above
Remark: another data set of the same source
chain 4 S8E gave a response of roughly 6.
